Measured values: the nanobody polyreactivity screen of Harvey et al. (2022)

Test: yeast display, Sf9 membrane polyspecificity reagent, FACS + sequencing; frameworks hold sequencing errors
Procedure, shortened: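 Genes from sorted yeast were amplified by colony PCR, read by MiSeq 2 × 250 sequencing and filtered on CDR length. These cells carried a synthetic nanobody library in Saccharomyces cerevisiae BJ5465 and were sorted by FACS into low and high (top ~1%) gates on anti-HA and streptavidin fluorescence. Polyreactivity is labelled according to the gate of origin.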

Sequence	polyreactivity (PSR sort gate)
QVHLVESGGGLVQAGGSLRLSCAASGRISWGYAMGWDRQAPGKERELVAVINFNGGRTYYADSVKGRFTISRDNAKNTVYLQMNSLKPEDTAVYYCAADSGYEYDYWGQGTQVTVSS	low polyreactivity
QVQLVETRGGLVQAGGTLRLSFAASGSTFSYYTMGWYRHAPGTERELVGSIDSSGGSTYYADSVKGRFTISRDNAQNTVYLQMNSLKPEDTAVYYCATGDEWGYDYWGQGTQVTVSS	low polyreactivity
QVQLVESGVGLVQAGGSLRLSCAASGSIFQDNAMGWYRQAPGKERELVAAISSGDSTYYADSVKGRFTISRDNAKNTVYLQMNSLKPEDTAVYYCAKVPSRWSRQDKAQFDYWGQGTQVTVSS	low polyreactivity
QVQLVESWGVLVQAGGSLRLSCAAYGSIFRLYAMGSYRTAPGTARELVAAITSGDSTNYADSVKGRFTISRDNAKNTVYLQMNSLKPEDTAVYYCNSGRISVRVTSEQYAYHEYYYWGQGTQVTVSS	high polyreactivity
QVQLVESGGGLVQAGGSLRLSCAASGFILQTYAMGWYRQAPGKERELVAAITSGARTYYADSVKGRFTISRDNAKNTVYLQMNSLKPEDTAVYYCAASIWLYRYYYWGQGTQVTVSS	high polyreactivity
QVQLVESGGGLGQAAGSLRLSCAASGHIFGPYAMGWYSQAPGKERELVAAITSGGTTYYADSVKGRFTISRDNAKNTVYLQMNSLKPEDTAVYYCAAKFELTRYSSPFFWYDSWGQGTKVTVSS	high polyreactivity
QVQLVESGGCLVQAGGSLRLSCAASGSTFYVYTMGWYTQAPGKESELVAAISWTDGDTYYADSVKGRFTISRDTAKKTVYLEMNSLKPEDTAVYYCAADIAWLWWYGPGYDYWGQGTQVTVSS	low polyreactivity
QVQLVESGGGLVQEGGSLRLICAASGSIFWLYAMGWYRQAPGKERELVAAIDSGDSTKYADSVKGRFTISRDNAKYTVYLQMNSLKPEDTAVYYCNASRRYHVRAPYDYWGQGTQVTVSS	low polyreactivity
QVQLVESGGGLVQAGGSLRLSCAASGRTIRWNAMGWYRPAPGKERELVAAITSRGGSTYYADSVKGRFTISRDNAKNTVYLQMNSLKPEDTAVYYCAARRRSAQSGSYNHWGQGTQVTVSS	high polyreactivity
QVQLVESGGGLVQAGGSLRLICAASGFIFSSYAMVWYRQAPGKERDLVAAISQTVGGTYYADSVKGRFTISRDNAKNTVYLQMNSLKPEDTAVYYCAADVYTASDRYWHDYWGQGTQVTVSS	low polyreactivity
QVQLVESGGGLVQAGGSLRLSCAASGFTFYYYTMGWYRQAPVKERELVAGITSRGGSTTYADSVKARFTISLDNAKNTVYLQMNSLKPEDTAVYYCNPLWAVHSGYDYLGQGTQVTVSS	high polyreactivity
QVQLVESGGGLVQAGGSLRLSCAASGSTFIVNAMGWYRQAPGKERELVAAISRGGSTYYADSVKGRFTISRDNAKNTVYLQMNSLKPEHTAVYYCAARIWRTRRYDYWGQGTQVTVSS	high polyreactivity
QVQLVESGGGIVQAGGSLRLSCAASGSIFYGYAMGWYRQAPGNERELVAAISSGGRTKYADSVKGRFTISRDNAKNTVYLQMNSLKPEDTAVYYCNVSYLVYRWNFGWSMDYWGQGTQVTVSP	low polyreactivity
QVQLVESGGRLVQAGGSLRLSCAASGRIFVRYAMGWYRQAPGKERELVAAISTRGGSTYYADSVKGRFTISRDNAKNTVYLQMNSLNPEDTAVYYCAAGPRPRPTDYWGQGTQVTVSS	high polyreactivity
QVQLVESGGGLVQAGGSLRLSCAASGSIFSSYAMGWSRQAPGKERELVAAISSGDSTYYADSVKGRFTISRDNAKTTVYLQMNSLKPEDTAVYYCAAPWYAWGQGTQVTVSS	low polyreactivity
QVQLVESGGGLVQAGGSLRLSCAASGIIFDGNSMGWYRQAPGKEREFVAANSRNGGSTSYADSVKGRFTISRHNAKNTVYLQMHSLKPEDTAVYYCAADVETFWGCRYEYWGQGTQVTVSS	low polyreactivity
QFKLVESGGGLVQAGGSLRLICAASGITLNRNAMGRYRQAPGKEMELVARISRRGGTTYYADSVKGRFTISRDKAKNTVYLQMNSLKPEDTAVYYCNAGPYGGNPFDYWGQGTQVTVSS	high polyreactivity
QVQLEESGGGLVQAGGSLRLSCAASGRIFGGYAMGWYRQAPGKERELVAAISRNGGNTYYADSVKGRFTISRDNAKNTVYLQMNSLKPEDTAVYYCAATYDGTYDYWGQGTQVTVSS	high polyreactivity
QVQLVESGGGLVQAGGSLRLSCAASGRIFGPYVMGWYRQAPGKERDFVAAISRRTGSTYYADSVKGRFTISRDNAKNTVYLQMNSLKPEDTAVYYCAATYYFSHVVGYGYWGQGTQVTVSS	high polyreactivity
QVQLVESGGGLVQAGGSLRLSCAASGRTFKYNVMGWYRQAPGKERELVAAISSGGGTNYADSVKGRFTISRDNAKNTVYLQMNSLKPEDTAVYYCAAKYAWRLLEMYYWGQGTQVTVSS	low polyreactivity
QVQLVESGGGLVQAGGSLRLSCAASGFTSLGNAMGWYRQAPGKERELVAAISRSGGRTYYADSVKGRFTISRDNAKNTVYLQMNSLKPEDTAVYYCNAVRLYGQGGDYWGQGTQVTVSS	high polyreactivity
QVQLVESGGGLVQAGGSLRLSCAASGRIFRGYAMGWYRQAPGKERELVAAIDRVGRTKYADSVKGRFTISRDNAKNTVYLQMNSLKPEDTAVYYCAAKASRVDWGYGYWGQGTQVTVSS	high polyreactivity

Sequence	polyreactivity (PSR sort gate)
QVQLVESGGGLVQAGGSLRLSCAASGRTFGANVMGWYRQAPGKERELVARISNGGRTSYADSVKARFTISRDNAKNPVYLQMNSLKPEDTAVYYCAALVVNVFPRYGYWGQGTQVTVSS	high polyreactivity
QFQLVESGGGLVQAGPSLLLSFAASGNTLHVYAMGRYRQAPGKERELVAAITSDVSTYYADSVKGRFTISRDNAKNTVYLQMHSLKPEDTAVYYFATTGYGSYLIYWGQGTQVTVSS	low polyreactivity
QVQLVESGGGLVQAGGSLRLSCAASGSTSIYYTMGWYRQAPGKERELVAYADSVKGRFTISRDNAKNTVYLQMNRLKPEDTAGYYCAAPRTYYSELTSPYDYWGQGAQVTVSS	low polyreactivity
QVQLVESGGGLVQAGGSLRLSCAASGITFRYYTMGWYRQAPGKERELVAVISWSGGSTYYADSVKGRFTISRDNAKNTVYLQMNSLKPEDTAVYYCAAVRRISRYDYWGQGTQVTVSS	high polyreactivity
QVQLVESGGGLVQAGGSLRLSCAASGITLRRNAMGWYRQAPGKERELVAAISKSGGRTYYADSVKGRFTISRDHAKNTVYLQMNSLKPEDTAVYYCAADVPWAASDYWGQGTQVTVSS	high polyreactivity
QVQLVESGGGLVQAGGSLRLICAASGRTFVYYAMGWYRQAPGKERELLAANSLSGSTYYAYSVKGRVTISRDNAKNTVDLHMYSLKPDDTAVYYCARPGGPDRTSSPYPYPYGYWGQGTQVTVSS	low polyreactivity
QVQLVESGGGLVQAGGSLRLSCAASGSIFDFYAMGWYRQAPGKERELVAAISWSGGNTYYADSVKGRFTISRDNAKNTVYLQMNSLKPEDTAVYYCNRGSIWRLLTGDFDYWGQGTQVTVSS	low polyreactivity
QVQLVESGGGLVQAGGSLRLSCAGSGSTFLYYAMGWYRQAPGKERELVAVITYSDGGTYYADSVKGRFTISRDNAKNTVYLEMNSLKPEDTAVYYCAKDYRAYAGHYTWTWHEYGYWGQGTQVTVSS	low polyreactivity
QVQLVESGGGLVQAGGSLRLSCAASGNIFHVNAMGWYRQAPGKERELVAGITWSGGSTYYADSVKGRFTISRDNAKNTVYLQMNSLKPEDTAVYYCAATGWYFGYGRYGYWVQGTQVTVSS	high polyreactivity
QVQLVESGGGLVQAGGSLRLSCAASGYTFPKYAMGWYRQAPGKERELVAAITKRGGRTYSADSVKGRFTISRDNAKNTVYLQMNSLKPEDTAVYYCAVDLDGPEYSQVHYDYWGQGTQVTVSS	high polyreactivity
QVQLVESGGGLVQAGGSLRLSCAASGFIFQEYAMGWYRQAPGKERELVAAITSGGSTNYADSVKGRFTISRDNAKNTVYLQMNSLKPADTAVYYCNVDSPDYYYDYDYWGQGTQVTVSS	low polyreactivity
QVQLVESGGGLVQAGGSLRLSCAASGSSVSYYAMGWYRQAPGKERELVAAISDNGDSTYYADSVKGRFTISRDNAKNTVYLQMNSLKPEDTAVYYCDKRYRSYGKSSKRRYYYWGQGTQVTVSS	low polyreactivity
QVQLVESGGGLVQAGGSLRLSCAASGNTFNAFNAMGWYRQAPGKERELVAAISRRGGSTYYADSVKGRFTISRDNAKNTVYLQMNSLKPEDTAVYYGAAYYSRSKYDYWGQGTQVTVSS	high polyreactivity
QVQLLESGGGLVQARGSLRLICAASGRIFTDNAMGWYIQAPGKERELVATISKRGGRTYYADSVKGRFTISRDNAKNTVYLQMNSLKPEDTAVYYCNARPYWIDGSGLFPYDYWGQGTQVTVSS	high polyreactivity
QVQLVETGGGLVQAGGSLRLICAASGSTFWRNAMGWYRQAPGKERELVATISKSGGRTYYADSVKGRFTISRDNAKNTVYLQMNRLKPEDTAVYYCAADQYWYKPYVGELYDYDYWGQGTQVTVSS	low polyreactivity
QVQLVESGGGLVQAGGSLRLICAASGRIFNRYAMGWYRQAPGNERELVAAITWSGDRTNYADSVKGRFTISRDNAKNTVYLLMNSLKPEDTAVYYCAAADGIIESDYWGQGTQVTVSS	low polyreactivity
QVQLLESGGGLVQAGGSLRLSCAASGIIFRVYAMGWYRQAPGKERELVATITWSGGSTFYADSVKGRFTISRDNAKNTVYLQMNSLKPEDTAVYYCAKRGYVRSGLGRPYADDYWGQGTQVTVSS	low polyreactivity
QVQLVESGGGLVQAGGSLRLSCAASRYIFDPNAMGWYRQAPGKERELVAAISGSGTSTYYADSVKGRFTISRDNAKNTVYLQMNSLKPEDTAVYYCAAAHDAGPVRYYYWGQGTQVSVSS	low polyreactivity
QVQLVESGGGLVQAGGSLRLSCAASGSTFYDNAKGWYRQAPGKERELVAGITESGGSTYYADSVKGRFTISRDNAKNTVYLQMNSLKPEDTAVYYCAAVYTYIPYLTYYYWGQGTQVTVSS	low polyreactivity
QVQLQESGGGLVQAGGSMRLSCAASGYFSNYYSMGLYRQAPGKERELVAGIGTGTSTYYADSVKGRFTISRDNAKNTVYQQMNSLKPEDTAVYYCAAPLDTSSRIFDYWGQGTQVTVSS	low polyreactivity
QVQLVETGGGLVQAGGSLRLSCAASGTFHWYAMGWYRPAPGKERELVAAITGSGGNTYYADSVKGRFTISRDNAKNTVYLQMNSLKPEDTAVYYCAARIYTWSVQYTGYGYWGQGTQVTVSS	high polyreactivity
